Experimental data reported in US20050202538A1 (Merck KGaA, published 2005).

Molecular target: T1, EPO receptor (expressed on TF-1 cells) (UniProt P19235)
T1 sequence (looked up): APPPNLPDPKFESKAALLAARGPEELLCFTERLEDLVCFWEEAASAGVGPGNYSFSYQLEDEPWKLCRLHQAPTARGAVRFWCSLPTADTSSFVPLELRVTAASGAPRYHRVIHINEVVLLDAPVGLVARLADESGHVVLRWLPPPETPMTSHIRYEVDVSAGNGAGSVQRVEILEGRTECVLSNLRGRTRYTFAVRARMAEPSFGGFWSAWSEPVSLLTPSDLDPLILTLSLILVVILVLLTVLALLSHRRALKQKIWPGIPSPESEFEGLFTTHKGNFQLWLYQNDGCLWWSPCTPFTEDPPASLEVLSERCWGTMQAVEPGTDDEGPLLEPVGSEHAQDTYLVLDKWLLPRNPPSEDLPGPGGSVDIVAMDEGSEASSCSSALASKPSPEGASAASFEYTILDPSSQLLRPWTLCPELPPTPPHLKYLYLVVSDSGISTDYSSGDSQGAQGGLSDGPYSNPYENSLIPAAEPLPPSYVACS
Test: cell-based or functional assay

EPO (Aranesp®) (ligand)
ED50, TF-1 cell proliferation (3H-thymidine incorporation); S.D. 0.96, N 10: 2.4 ng/mL
